Measurements from CN115028723A (dated 2022).

Biological target: T1, 重组人IL-1β (novoprotein, CG93) (human, UniProt P01584 117-269)
T1 construct: The supplier is stated for the immunogen; also called rHuman IL-1β; hIL-1β
Experiment: Biacore SPR, antibody captured on Protein A chip, IL-1β as analyte, 1:1 Langmuir fit

B1: 阳性对照抗体CAN (卡纳单抗, Canakinumab) (antibody, human IgG1, kappa, V domains shown)
VH: QVQLVESGGGVVQPGRSLRLSCAASGFTFSVYGMNWVRQAPGKGLEWVAIIWYDGDNQYYADSVKGRFTISRDNSKNTLYLQMNGLRAEDTAVYYCARDLRTGPFDYWGQGTLVTVSS
VL: EIVLTQSPDFQSVTPKEKVTITCRASQSIGSSLHWYQQKPDQSPKLLIKYASQSFSGVPSRFSGSGSGTDFTLTINSLEAEDAAAYYCHQSSSLPFTFGPGTKVDIKR
notes: Signal peptide added for expression is left out; also called Ilaris
Q: How did the Kd turn out when B1 was run?
A: The Kd was 0.0153 nM.

Q: What about the koff of the same binder?
A: Its koff is 6.01e-05 s⁻¹.

Q: And the kon?
A: The kon was 3.93e+06 M⁻¹ s⁻¹.
